Assay results: patent publication US20010041346A1, “METHOD FOR ASSAYING COMPOUNDS AFFECTING SMOOTH MUSCLE CONTRACTILE STATE” (priority 1999, published 2001)

Molecular target: T1, cGK from human saphenous vein smooth muscle cell lysates (Homo sapiens, UniProt Q13976)
T1 construct: from tissue; host or cells: frozen human saphenous vein, homogenized
T1 sequence (Q13976 1-671): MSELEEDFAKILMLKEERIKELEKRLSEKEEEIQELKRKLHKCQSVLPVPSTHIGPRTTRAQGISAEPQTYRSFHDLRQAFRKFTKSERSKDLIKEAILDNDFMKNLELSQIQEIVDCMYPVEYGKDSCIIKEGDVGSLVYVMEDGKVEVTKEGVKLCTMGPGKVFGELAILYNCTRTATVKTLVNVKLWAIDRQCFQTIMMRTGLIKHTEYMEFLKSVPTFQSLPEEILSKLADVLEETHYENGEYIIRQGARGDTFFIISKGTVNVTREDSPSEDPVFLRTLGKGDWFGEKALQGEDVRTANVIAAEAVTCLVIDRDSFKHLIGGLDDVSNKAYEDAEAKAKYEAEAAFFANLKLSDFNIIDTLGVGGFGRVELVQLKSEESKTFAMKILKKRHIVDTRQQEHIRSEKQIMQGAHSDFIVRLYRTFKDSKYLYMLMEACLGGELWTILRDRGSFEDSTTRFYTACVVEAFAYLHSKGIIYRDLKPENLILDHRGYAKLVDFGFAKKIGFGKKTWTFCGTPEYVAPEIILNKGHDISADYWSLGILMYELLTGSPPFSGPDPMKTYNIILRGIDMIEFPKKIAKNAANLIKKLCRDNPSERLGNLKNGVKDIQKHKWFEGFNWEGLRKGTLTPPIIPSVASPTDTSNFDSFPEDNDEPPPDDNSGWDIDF
Experiment: GST-fusion protein binding, immunoblot for cGK
Settings: GST pulldown, immunoblotting with anti-cGK antibody
Protocol: Lysates were centrifuged for 15 minutes at 4° C. in a microfuge, and the supernatant was incubated with 100 μl of GST or GST-fusion protein beads overnight, followed by washing in RIPA buffer containing 1% NP40, and boiling for 5 minutes in SDS sample buffer. Associated proteins were resolved by SDS-PAGE and transferred to nitrocellulose, which was blocked in PBS with 0.05% Tween 20 and 5% milk. Primary antibody incubation with rabbit polyclonal anti-human cGPK-CT (Upstate Biotechnology, Lake Placid, N.Y.) was carried out at 1:2000 dilution and rabbit polyclonal anti-MBS antibody (Berkeley Antibody Company, Richmond, Calif.) at 1:1600 dilution in blocking buffer for one hour at room temperature, followed by secondary antibody incubation with anti-rabbit horseradish peroxidase-conjugated IgG (Amersham Life Science, Arlington Heights, Ill.) at 1:500 in blocking buffer. The membranes were developed with ECL (Amersham Life Science, Arlington Heights, Ill.).
The 586 base pair cDNA insert from AL9, the 177 base pair N-terminal cGK1α truncation mutant, cGK1α1-59, the N-terminal 274 base pairs of cGKIβ, and the N-terminal 816 base pairs of cGKII were cloned into pGEX (Pharmacia Biotech, Piscataway, N.J.). GST fusion proteins were expressed in bacterial strain BL21 (Stratagene, La Jolla, Calif.) according to standard techniques. […]

binding of cGK from smooth muscle cell lysates: no interaction with cGK
B1: MBS1-690: 690 amino acid N-terminal half of MBS (protein, UniProt O14974 1-690, looked up, fragment)
chain: MKMADAKQKRNEQLKRWIGSETDLEPPVVKRQKTKVKFDDGAVFLAACSSGDTDEVLKLLHRGADINYANVDGLTALHQACIDDNVDMVKFLVENGANINQPDNEGWIPLHAAASCGYLDIAEFLIGQGAHVGAVNSEGDTPLDIAEEEAMEELLQNEVNRQGVDIEAARKEEERIMLRDARQWLNSGHINDVRHAKSGGTALHVAAAKGYTEVLKLLIQAGYDVNIKDYDGWTPLHAAAHWGKEEACRILVDNLCDMEMVNKVGQTAFDVADEDILGYLEELQKKQNLLHSEKRDKKSPLIESTANMDNNQSQKTFKNKETLIIEPEKNASRIESLEQEKVDEEEEGKKDESSCSSEEDEEDDSESEAETDKTKPLASVTNANTSSTQAAPVAVTTPTVSSGQATPTSPIKKFPTTATKISPKEEERKDESPATWRLGLRKTGSYGALAEITASKEGQKEKDTAGVTRSASSPRLSSSLDNKEKEKDSKGTRLAYVAPTIPRRLASTSDIEEKENRDSSSLRTSSSYTRRKWEDDLKKNSSVNEGSTYHKSCSFGRRQDDLISSSVPSTTSTPTVTSAAGLQKSLLSSTSTTTKITTGSSSAGTQSSTSNRLWAEDSTEKEKDSVPTAVTIPVAPTVVNAAASTTTLTTTTAGTVSSTTEVRERRRSYLTPVRDEESESQRKARSRQAR
